Data from US8785384B2, “Peptide synthesis” (Chemical & Biopharmaceutical Laboratories of Patras, priority 2010, dated 2014).
Where no end group is shown, it is not given here. [ ]: non-standard residue; d: D form. Met(O) = CS(=O)CC[C@H](N)C(=O)O

How the values were obtained:
[1] = Solubility of relaxin B-chains (methionine sulphoxide vs non-oxidised); assay type: physicochemical, human; settings: compared with RLX1B and RLX2B respectively / non-oxidised analogue
[2] = background statement on earlier attempts at synthetic human relaxins; cited from earlier work

| Substance | solubility relative to the corresponding non-oxidised B-chain [1] | solubility of non-oxidised B-chain [2] |
| --- | --- | --- |
| Met(O)^24-RLX1B: Met(O)^24-human relaxin 1 B-chain, SEQ ID NO: 6; linear (compound 9) or cyclic (compound 10) form not specified (KWKDDVIKLCGRELVRAQIAICG[Met(O)]STWS; not fully specified; cysteine pairing not given here; listed as Homo sapiens) | higher solubility |  |
| Met(O)^25-RLX2B: Met(O)^25-human relaxin 2 B-chain, SEQ ID NO: 7; linear (compound 13) or cyclic (compound 14) form not specified | higher solubility |  |
| RLX1B: Chain B of human relaxin-1, SEQ ID NO: 3 (KWKDDVIKLCGRELVRAQIAICGMSTWS; listed as Homo sapiens) |  | highly insoluble or hydrophobic |
| RLX2B: Chain B of human relaxin-2, SEQ ID NO: 5 |  | highly insoluble or hydrophobic |
